Assay results reported in publication PMC10693601.
Values joined by “and” are separate entries in the source; they are usually repeats but may differ in a detail not shown here. Equal values may be shown once.

Target: AIM2 (Absent In Melanoma 2), full length, without MBP tag, labeled with Alexa Fluor 488 (human) (UniProt O14862)
Test: single-molecule confocal fluorescence microscopy with optical tweezers; Alexa 488-labeled protein (~0.2-14 nM) in the protein channel, on a single biotinylated lambda-phage dsDNA (48.5 kbp) tethered between two optically trapped streptavidin beads; 2D scans, movies and kymographs; oligomer size from photon counts (11 per fluorophore); 20 mM HEPES pH 7.5, 160 mM KCl, 1 mM BME, 0.1% Triton X-100, 5% glycerol; room temperature

oligomer growth rate (highest observed): < 28 molecules/s
oligomer growth rate (oligomers of 1-20 molecules, low nanomolar): 0.2 to 7 molecules/s
oligomer growth rate at 0.5 nM AIM2: 7.4 s⁻¹
oligomer growth rate at 1 nM AIM2 (bottom kymograph, dimer to hexamer): 94 s⁻¹
oligomer growth rate at 1 nM AIM2 (middle kymograph, starting from a monomer): 5.8 s⁻¹
oligomer growth rate at 2 nM AIM2: 10.7 s⁻¹
oligomer growth rate at 2 nM AIM2 (4 to 6 molecules): 11.4 s⁻¹
oligomer growth rate at 10 nM AIM2 (4 to 11 molecules): 25.3 s⁻¹
oligomer growth rate at 10 nM AIM2 (top kymograph): 302 s⁻¹
oligomer growth rate at 13.5 nM AIM2: 34 s⁻¹
Substance: AIM2 (Absent In Melanoma 2), full length, without MBP tag, labeled with Alexa Fluor 488 (from UniProt O14862 1-343) (natural protein)
stoichiometry N: < 25 molecules and 13 molecules to 15 molecules (2×)
